The values below come from patent publication US20240075137A1 (COMPUGEN, published 2024).

To fix the notation:
B1: CHA.7.535 (antibody, V domains shown)
VH: EVQLQQSGPELVKPGASVKISCKTSGYTFTKNTMHWVRQSHGKSLEWIGGINPNSGGASFNQKFMGKATLTVDKSSSTAYMELRSLTSEDSAVYYCARDGYDGDWFFDVWGAGTTVTVSS
VL: DIQMNQSPFSLSASLGDTVTITCHASQNIYVWLSWYQQKPGNIPKLLIYKASDLHTGVPSRFSGSGSGTDFTLNISSLQPEDIATYYCQQGQSYPRTFGGGTKLEIK
B2: CHA.7.526 (antibody, V domains shown)
VH: QVQLKESGPGLVAPSQSLSITCTVSGFSLTAYNINWVRQPPGKGLEWLGMIWGDGNTDYNSPLKSRLTISKDNSKSQVFLKMDSLQTDDTARYYCARDLKVRRDSPYTMDYWGQGTSVTVSS
VL: NIMMTQSPSSLAVSAGEKVTMSCKSSQSVLYSSNQKNYLAWYQQKPGQSPKLLIYWASNRESGVPDRFTGSGSGTDFTLTISSVQAEDLAVYYCHQYLSSYTFGGGTKLEIK
B3: CHA.7.502 (antibody, V domains shown)
VH: DVQLVESGGDLVQPGGSRKLSCTASGFTFSNFGMHWVRQAPEKGLEWVAYISSGSSTIYYADTVKGRFTISRDNPENTLFLQMTSLRSEDTAMYYCTRLDYYTNSYSMDHWGQGTSVTVSS
VL: QIVLTQSPALMSASPGEKVTLTCSASSSLPYIYWYQQKPGSSPKPWIYLTSNLASGVPARFSGSRSGTSYSLTISSVEAEDAATYYCQQWSSNPFTFGSGTKLEIK
B4: CHA.7.534 (antibody, V domains shown)
VH: EVQLQQSGAELVKPGASVRLSCTASGFSIRDTYIHWVKQRPEQGLDWIGKIDPANGKSEYDPKFQGRATMTTDTSSNTAYLQLSSLTSEDTAVYYCTRYGYYPYFDVWGAGTTVTVFS
VL: SIVMTQTPKFLLVSAGDRVAITCKASQSVRHDVVWYQQKPGQSPKLLIYYASSRYTGVPDRFTGSGYGTDFTFTISTVQAEDLALYFCLQDFSSPWTFGGGTKLEIK
B5: CHA.7.503 (antibody, V domains shown)
VH: QVQLQQSGAELAKPGASVKMSCKASGYTFTSNWMHWVKQRPGQGLEWIGYINPSNGYTECNQKFRDKATLSADKSSSTAYMQLNSLTSADSAVYYCALMISAWLPYWGQGTLVTVSA
VL: DIVLTQSPASLAISLGQRATISCRASQSVSASSYSYVHWYQQKPGQPPKLLIKYASSLESGVPARFSGSGSGTDFTLNIHPVEEEDTATYYCLHTWEIPYTFGGGTKLEIK
B6: CHA.7.506 (antibody, V domains shown)
VH: QVQLQQSGAELTRPGASVNLSCKASGYTFTSYWMQWVKQRPGQGLEWIGAIYPGDGDTRFNQKFKGKATLTADESSSTAYMQLSSLASEDSAVYYCATYYRYDDYWGQGTTLTVSS
VL: QIVLTQSPAIMSASPGEKVTMTCSASSSVSYMHWYQQKSGTSPKRWIYDTSKLASGVPTRFSGSGSGTSYSLTISSMEAEDAATYYCQQWSSNPYTFGGGTKLEIK
B7: CPA.9.059 (Fab, V domains shown)
VH: EVQLVETGGGLIQPGGSLRLSCAASGFTVSSNYMSWVRQAPGKGLEWVSVIYSGGSTYYADSVKGRFTISRDNSKNTLYLQMNSLRAEDTAVYYCARGARYSYGQYPYWGQGTLVTVSS
VL: DIQLTQSPSFLSASVGDRVTITCRASHDISSLFSWYQQKPGKAPKLLIYAASTLQTGVPSRFSGSASGTEFTLTISSLQPEDFATYYCLQLDSFPTWTFGQGTKVEIK
notes: phage fab, campaign 2; fab form of CPA.9.059 hIgG4 (m73); also called CPA.9.059 (fab)
B8: CPA.9.018 (Fab, V domains shown)
VH: QVQLVESGGGLVQPGGSLRLSCAASGFTFSSYGMHWVRQAPGKGLEWVAFIRYDGSNKYYADSVKGRFTISRDNSKNTLYLQMNSLRAEDTAVYYCAKEMLVQDYYYMDVWGQGTTVTVSS
VL: DVVMTQSPLSLPVSPGEPASISCRSSQNLLHRNGINYLNWYLQKPGQSPQLLIYWGSNRASGVPDRFSGSGSGTDFTLKISRVEAEDVGVYYCMQGLQIPPTFGQGTKVDIK
notes: phage fab, campaign 1; fab form of CPA.9.018-H4; also called CPA.9.018 (fab)
B9: CPA.9.057 (Fab, V domains shown)
VH: QVQLQESGPGLVKPSETLSLTCTVSGGSISSSSYYWGWIRQPPGKGLEWIGSIYYSGSTYYNPSLKSRVTISVDTSKNQFSLKLSSVTAADTAVYYCARQGAAAGNPFDIWGQGTMVTVSS
VL: QSVLTQPPSVSGTPGQRVTISCSGSSSNIGSNFVYWHQQLTGTAPKLLIYRNTQRPSGVPDRFSGSKSGTSASLAIGGLRSEDEADYYCATWDDSLSAWVFGGGTKLTVL
notes: phage fab, campaign 2; fab form of CPA.9.057-H4; also called CPA.9.057 (fab)

A word on the EC50: it is the concentration that produces a half-maximal response. A low value points to a more potent agent. By IC50 is commonly meant the concentration that inhibits the measured activity by half. A lower IC50 goes with greater potency.

One assay deals with T1, human PVRIG on cells (human, UniProt Q6DKI7 1-326).
T1 construct: whole, on cells; over-expressed on HEK cells or endogenous on Jurkat and CD8 T cells; also called hPVRIG; HEK hPVRIG cells
T1 sequence (looked up): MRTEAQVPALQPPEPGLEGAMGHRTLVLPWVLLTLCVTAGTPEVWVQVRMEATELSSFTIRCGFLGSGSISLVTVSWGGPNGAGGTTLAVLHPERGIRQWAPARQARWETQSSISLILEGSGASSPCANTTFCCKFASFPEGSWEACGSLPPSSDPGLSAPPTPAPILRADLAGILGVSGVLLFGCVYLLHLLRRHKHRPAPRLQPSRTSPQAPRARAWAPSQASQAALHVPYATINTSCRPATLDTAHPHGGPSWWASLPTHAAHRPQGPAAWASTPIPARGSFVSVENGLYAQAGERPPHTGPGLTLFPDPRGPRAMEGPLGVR
The assay can be described thus: FACS, HEK hPVRIG cells (HEK OE). (A flow cytometer gives signals particle by particle.)
For the molecule B1, the EC50 is 3.67 nM.
Still for that read-out and setting: next, B2: 2.99 nM.
Still for that read-out and setting: next, B3: 40.2 nM; B4: 1.87 nM; B5: 1.05 nM.

For a further assay, the target named is T1, human PVRIG on cells. The assay can be described thus: FACS, human PBMC, CD8+ T cells, 10ug/ml.
Regarding B3, the “gMFIr Human CD8+ T cells” value came out at 1.41.
On the same count and under the same terms, to B5 belongs 1.96.

Another assay concerns the target T1, human PVRIG on cells. The assay can be described thus: FACS, human PBMC, CD8+ T cells, 10ug/ml. The source holds these as a separate data set.
As to B1, the “gMFIr Human CD8+ T cells” value came to 1.28.
Turning to B2, the “gMFIr Human CD8+ T cells” value is 1.71.
On the same count and under the same terms, to B4 belongs 1.96.

In a further assay the target is T1, human PVRIG on cells. The assay can be described thus: FACS, human PBMC, CD8+ T cells, 10ug/ml. The source holds these as a separate data set.
For the molecule B1, the “gMFIr Human CD8+ T cells” value is 1.28.
The same measure, in the same setting: to B2 belongs 1.71; to B3, 1.41; to B4, 1.96.
On the same count and under the same terms, next, B5: 1.96.

The target of the next assay is T1, human PVRIG on cells. The assay can be described thus: FACS, human PBMC, CD56 int. NK cells, 10ug/ml.
On to B3, for which the “gMFIr Human CD56 int. NK” value is 1.97.
For B5, the “gMFIr Human CD56 int. NK” value is 3.15.

A further assay deals with T1, human PVRIG on cells. The assay is described as follows: FACS, human PBMC, CD56 int. NK cells, 10ug/ml. This is another data set of the same source.
As for B1, the “gMFIr Human CD56 int. NK” value worked out at 2.24.
On the same count and under the same terms, next, B2: 2.08.
Still for that read-out and setting: next, B4: 2.6.

The next assay has as its target T1, human PVRIG on cells. The assay can be described thus: FACS, human PBMC, CD56 int. NK cells, 10ug/ml. This is another data set of the same source.
For B1, the “gMFIr Human CD56 int. NK” value came to 2.24.
Turning to B2, the “gMFIr Human CD56 int. NK” value came out at 2.08.
Still for that read-out and setting: next, B3: 1.97; B4: 2.6; B5: 3.15.

Another assay has as its target T1, human PVRIG on cells. The assay can be described thus: FACS, Jurkat cells, relative to control, 3.3ug/ml.
B1: the “gMFIr Jurkat” value turned out to be 2.79.
As for B2, the “gMFIr Jurkat” value was determined as 3.98.
Same read-out and setting: to B3 belongs 6.21.
The same measure, in the same setting: next, B4: 5.05.
The same measure, in the same setting: to B5 belongs 23.6.

A further assay concerns the target T1, human PVRIG on cells. The assay can be described thus: FACS, HEK hPVRIG over HEK parental cells, 3.3ug/ml.
Regarding B1, the “gMFIr HEK OE/par” value turned out to be 40.4.
B2: the “gMFIr HEK OE/par” value was 47.3.
On the same count and under the same terms, next, B6: 0.76.
Same read-out and setting: next, B3: 72.
The same measure, in the same setting: to B4 belongs 43.7.
In the case of B5, the “gMFIr HEK OE/par” value amounted to 261.

In another assay the target is T2, cynomolgus PVRIG on cells (cynomolgus, UniProt A0A2K5WVV8 41-322).
T2 construct: whole, on cells; also called cPVRIG; expi cPVRIG cells
T2 sequence: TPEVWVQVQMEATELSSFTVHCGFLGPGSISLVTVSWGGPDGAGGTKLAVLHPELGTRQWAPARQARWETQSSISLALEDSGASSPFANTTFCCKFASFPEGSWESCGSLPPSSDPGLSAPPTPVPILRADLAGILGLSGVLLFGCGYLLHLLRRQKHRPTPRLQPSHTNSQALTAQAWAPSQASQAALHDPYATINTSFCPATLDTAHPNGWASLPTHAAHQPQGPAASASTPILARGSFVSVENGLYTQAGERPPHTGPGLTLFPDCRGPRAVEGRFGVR
The assay is described as follows: FACS, expi cPVRIG over expi parental cells, 3.3ug/ml.
Regarding B6, the “gMFIr Expi cyno OE/par” value is 0.77.
B3: the “gMFIr Expi cyno OE/par” value was 60.5.
On to B5, for which the “gMFIr Expi cyno OE/par” value came out at 106.

Another assay addresses T2, cynomolgus PVRIG on cells. The assay is described as above. This is another data set of the same source.
As to B1, the “gMFIr Expi cyno OE/par” value was found to be 0.82.
On the same count and under the same terms, to B2 belongs 0.79.
On the same count and under the same terms, next, B4: 46.3.

The target in a further assay is T2, cynomolgus PVRIG on cells. The assay is described as above. The source holds these as a separate data set.
For the molecule B1, the “gMFIr Expi cyno OE/par” value turned out to be 0.82.
Take B2: the “gMFIr Expi cyno OE/par” value worked out at 0.79.
In the case of B6, the “gMFIr Expi cyno OE/par” value amounted to 0.77.
Take B3: the “gMFIr Expi cyno OE/par” value is 60.5.
B4: the “gMFIr Expi cyno OE/par” value is 46.3.
On the same count and under the same terms, next, B5: 106.

The next assay has as its target T3, PVRIG (FACS-based competition assay of FIGS. 7 and 15) (Homo sapiens, UniProt Q6DKI7).
T3 construct: made because the format of the assay is only described in U.S. Ser. No. 15/048,967; also called human PVRIG
T3 sequence (receptor, looked up): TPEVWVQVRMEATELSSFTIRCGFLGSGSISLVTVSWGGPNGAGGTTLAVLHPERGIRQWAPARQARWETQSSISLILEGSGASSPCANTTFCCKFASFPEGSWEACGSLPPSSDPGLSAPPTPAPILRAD
The assay is described as follows: FACS-based competition assay of PVRIG blocking; format and competitor not given.
Consider B1, for which the IC50 came to 821 nM.
For the molecule B2, the IC50 is 58.9 nM.
On the same count and under the same terms, next, B6: 31.6 nM; B3: 39.9 nM; B4: 181 nM.

The next assay deals with T3, PVRIG (FACS-based competition assay of …). Described as above. The source holds these as a separate data set.
For B1, the half-maximal inhibitory concentration (IC50) came out at 821 nM.
On the same count and under the same terms, to B2 belongs 58.9 nM; to B6, 31.6 nM; to B3, 39.9 nM.
On to B4, for which the IC50 is 181 nM.

Another assay has as its target T4, human TIGIT on cells (human, UniProt Q495A1 22-141).
T4 construct: also called Expi293 human TIGIT over-expressing cells
T4 sequence: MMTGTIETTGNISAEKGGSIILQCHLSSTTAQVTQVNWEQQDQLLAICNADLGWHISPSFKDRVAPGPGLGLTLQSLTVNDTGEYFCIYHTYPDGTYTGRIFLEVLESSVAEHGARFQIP
The assay is described as follows: flow cytometry of fab; MFI on human TIGIT over-expressing Expi293 / MFI on parental Expi293.
As for B7, the “MFIr (OE/Par) hTIGIT” value was 11.
Still for that read-out and setting: next, B8: 16; B9: 30.
